Here are results for ten molecules from patent US20250382344A1, “Soluble GLP1/GIP/NPY2 Receptor Triple Agonists” (Boehringer Ingelheim International GmH, priority 2024, published 2025).

*1 amine or outer side, *2 acyl side, *3 side chain or, on linkers, in order; H or OH if unused. Where no end group is shown, it is not given here. Side-chain parts run from the residue outwards. [ ]: non-standard residue; d: D form. The star is where a group is joined. C20 diacid = O=C(O)CCCCCCCCCCCCCCCCCCC(=O)*; C18 diacid = O=C(O)CCCCCCCCCCCCCCCCC(=O)*; γGlu = O=C(O)[C@H](CCC(=O)[*:2])N[*:1]; εLys = N[C@@H](CCCCN[*:1])C(=O)[*:2]; NMeQ = CN[C@@H](CCC(N)=O)C(=O)O; dtOrn = not defined here; AEEA = NCCOCCOCC(=O)O; Aib = CC(C)(N)C(=O)O

Holding throughout (assay): cell-based or functional assay
Assay [1] deals with human GLP-1 receptor (human, UniProt P43220 24-463).
In assay [2] the target is T1, human neuropeptide Y2 receptor (human, UniProt P49146 1-381).
T1 sequence (looked up): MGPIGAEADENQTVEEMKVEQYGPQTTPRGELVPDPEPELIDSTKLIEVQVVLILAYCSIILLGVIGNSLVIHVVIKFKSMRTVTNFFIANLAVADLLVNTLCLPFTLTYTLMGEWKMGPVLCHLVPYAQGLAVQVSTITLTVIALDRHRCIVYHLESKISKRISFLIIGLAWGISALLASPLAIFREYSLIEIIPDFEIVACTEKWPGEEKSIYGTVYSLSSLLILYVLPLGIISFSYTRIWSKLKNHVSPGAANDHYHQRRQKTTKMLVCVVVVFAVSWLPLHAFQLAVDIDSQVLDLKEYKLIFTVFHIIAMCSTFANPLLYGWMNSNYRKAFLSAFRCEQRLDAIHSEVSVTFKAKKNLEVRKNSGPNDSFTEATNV

In assay [3] the target is T2, human GIP receptor (human, UniProt P48546 22-466).
T2 sequence (looked up): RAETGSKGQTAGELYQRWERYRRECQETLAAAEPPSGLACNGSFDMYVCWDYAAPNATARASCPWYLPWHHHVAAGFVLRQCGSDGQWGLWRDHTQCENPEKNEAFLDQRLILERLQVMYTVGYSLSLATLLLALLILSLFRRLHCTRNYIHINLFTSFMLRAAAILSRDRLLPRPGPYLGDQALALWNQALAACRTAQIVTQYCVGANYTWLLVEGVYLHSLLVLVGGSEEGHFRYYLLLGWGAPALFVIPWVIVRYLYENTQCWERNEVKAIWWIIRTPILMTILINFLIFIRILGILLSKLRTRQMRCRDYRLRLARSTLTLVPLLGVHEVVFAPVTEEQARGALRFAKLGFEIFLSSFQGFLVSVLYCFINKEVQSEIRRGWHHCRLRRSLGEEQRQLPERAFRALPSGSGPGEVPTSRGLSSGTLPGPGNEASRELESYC

B1: Compound 110 (peptide)
peptide: Y[Aib]EGTFTSDYSI[Aib]LEKQAQ[Aib]AFVRHLINK([AEEA-γGlu-γGlu-γGlu-γGlu-C18 diacid])[Aib]TRQRY-NH2
modifications: N-terminus assumed
SMILES: CC[C@H](C)[C@H](NC(=O)[C@H](CC(C)C)NC(=O)[C@H](Cc1c[nH]cn1)NC(=O)[C@H](CCCNC(=N)N)NC(=O)[C@@H](NC(=O)[C@H](Cc1ccccc1)NC(=O)[C@H](C)NC(=O)C(C)(C)NC(=O)[C@H](CCC(N)=O)NC(=O)[C@H](C)NC(=O)[C@H](CCC(N)=O)NC(=O)[C@H](CCCCN)NC(=O)[C@H](CCC(=O)O)NC(=O)[C@H](CC(C)C)NC(=O)C(C)(C)NC(=O)[C@@H](NC(=O)[C@H](CO)NC(=O)[C@H](Cc1ccc(O)cc1)NC(=O)[C@H](CC(=O)O)NC(=O)[C@H](CO)NC(=O)[C@@H](NC(=O)[C@H](Cc1ccccc1)NC(=O)[C@@H](NC(=O)CNC(=O)[C@H](CCC(=O)O)NC(=O)C(C)(C)NC(=O)[C@@H](N)Cc1ccc(O)cc1)[C@@H](C)O)[C@@H](C)O)[C@@H](C)CC)C(C)C)C(=O)N[C@@H](CC(N)=O)C(=O)N[C@@H](CCCCNC(=O)COCCOCCNC(=O)CC[C@H](NC(=O)CC[C@H](NC(=O)CC[C@H](NC(=O)CC[C@H](NC(=O)CCCCCCCCCCCCCCCCC(=O)O)C(=O)O)C(=O)O)C(=O)O)C(=O)O)C(=O)NC(C)(C)C(=O)N[C@H](C(=O)N[C@@H](CCCNC(=N)N)C(=O)N[C@@H](CCC(N)=O)C(=O)N[C@@H](CCCNC(=N)N)C(=O)N[C@@H](Cc1ccc(O)cc1)C(N)=O)[C@@H](C)O
With B1, the “EC50, CreLuc reporter, 0.5% hP” value was found to be 0.7 nM in assay [1] and 14.2 nM in assay [2]. Moreover, the “EC50, CreLuc reporter, 100% hP” value in assay [1] was 2.3 nM; in assay [2], 51.4 nM; in assay [3], 3.8 nM.

B2: Compound 114 (peptide)
peptide: Y[Aib]EGTFTSDYSI[Aib]LEKQAQ[Aib]AFVRHLINK([γGlu-γGlu-γGlu-γGlu-γGlu-γGlu-C20 diacid])[Aib]TR[NMeQ]RY-NH2
modifications: N-terminus assumed
SMILES: CC[C@H](C)[C@H](NC(=O)[C@H](CC(C)C)NC(=O)[C@H](Cc1c[nH]cn1)NC(=O)[C@H](CCCNC(=N)N)NC(=O)[C@@H](NC(=O)[C@H](Cc1ccccc1)NC(=O)[C@H](C)NC(=O)C(C)(C)NC(=O)[C@H](CCC(N)=O)NC(=O)[C@H](C)NC(=O)[C@H](CCC(N)=O)NC(=O)[C@H](CCCCN)NC(=O)[C@H](CCC(=O)O)NC(=O)[C@H](CC(C)C)NC(=O)C(C)(C)NC(=O)[C@@H](NC(=O)[C@H](CO)NC(=O)[C@H](Cc1ccc(O)cc1)NC(=O)[C@H](CC(=O)O)NC(=O)[C@H](CO)NC(=O)[C@@H](NC(=O)[C@H](Cc1ccccc1)NC(=O)[C@@H](NC(=O)CNC(=O)[C@H](CCC(=O)O)NC(=O)C(C)(C)NC(=O)[C@@H](N)Cc1ccc(O)cc1)[C@@H](C)O)[C@@H](C)O)[C@@H](C)CC)C(C)C)C(=O)N[C@@H](CC(N)=O)C(=O)N[C@@H](CCCCNC(=O)CC[C@H](NC(=O)CC[C@H](NC(=O)CC[C@H](NC(=O)CC[C@H](NC(=O)CC[C@H](NC(=O)CC[C@H](NC(=O)CCCCCCCCCCCCCCCCCCC(=O)O)C(=O)O)C(=O)O)C(=O)O)C(=O)O)C(=O)O)C(=O)O)C(=O)NC(C)(C)C(=O)N[C@H](C(=O)N[C@@H](CCCNC(=N)N)C(=O)N(C)[C@@H](CCC(N)=O)C(=O)N[C@@H](CCCNC(=N)N)C(=O)N[C@@H](Cc1ccc(O)cc1)C(N)=O)[C@@H](C)O
For the molecule B2, the “EC50, CreLuc reporter, 0.5% hP” value in assay [1] is 1.8 nM; in assay [2] it was 82.1 nM; in assay [3], 0.5 nM. Moreover, the “EC50, CreLuc reporter, 100% hP” value in assay [1] came to 10 nM; in assay [2] it was 657 nM.

B3: Compound 129 (peptide)
peptide: Y[Aib]EGTFTSDYSI[Aib]LEEQAQ[Aib]EFVRHLINK([γGlu-γGlu-γGlu-γGlu-C18 diacid])[Aib]TRQRY-NH2
modifications: N-terminus assumed
SMILES: CC[C@H](C)[C@H](NC(=O)[C@H](CC(C)C)NC(=O)[C@H](Cc1c[nH]cn1)NC(=O)[C@H](CCCNC(=N)N)NC(=O)[C@@H](NC(=O)[C@H](Cc1ccccc1)NC(=O)[C@H](CCC(=O)O)NC(=O)C(C)(C)NC(=O)[C@H](CCC(N)=O)NC(=O)[C@H](C)NC(=O)[C@H](CCC(N)=O)NC(=O)[C@H](CCC(=O)O)NC(=O)[C@H](CCC(=O)O)NC(=O)[C@H](CC(C)C)NC(=O)C(C)(C)NC(=O)[C@@H](NC(=O)[C@H](CO)NC(=O)[C@H](Cc1ccc(O)cc1)NC(=O)[C@H](CC(=O)O)NC(=O)[C@H](CO)NC(=O)[C@@H](NC(=O)[C@H](Cc1ccccc1)NC(=O)[C@@H](NC(=O)CNC(=O)[C@H](CCC(=O)O)NC(=O)C(C)(C)NC(=O)[C@@H](N)Cc1ccc(O)cc1)[C@@H](C)O)[C@@H](C)O)[C@@H](C)CC)C(C)C)C(=O)N[C@@H](CC(N)=O)C(=O)N[C@@H](CCCCNC(=O)CC[C@H](NC(=O)CC[C@H](NC(=O)CC[C@H](NC(=O)CC[C@H](NC(=O)CCCCCCCCCCCCCCCCC(=O)O)C(=O)O)C(=O)O)C(=O)O)C(=O)O)C(=O)NC(C)(C)C(=O)N[C@H](C(=O)N[C@@H](CCCNC(=N)N)C(=O)N[C@@H](CCC(N)=O)C(=O)N[C@@H](CCCNC(=N)N)C(=O)N[C@@H](Cc1ccc(O)cc1)C(N)=O)[C@@H](C)O
With B3, the “EC50, CreLuc reporter, 0.5% hP” value in assay [1] was 0.9 nM; in assay [2], 213 nM; in assay [3], 0.4 nM. Further, the “EC50, CreLuc reporter, 100% hP” value in assay [1] worked out at 2.8 nM; in assay [2] it was 827 nM; in assay [3] it was 7.1 nM.

B4: Compound 97 (peptide)
peptide: Y[Aib]EGTFTSDYSI[Aib]LEKQAQ[Aib]AFVRHLINK([dtOrn-γGlu-γGlu-γGlu-γGlu-γGlu-γGlu-C20 diacid])[Aib]TRQRY-NH2
modifications: reading uncertain
Regarding B4, the “EC50, CreLuc reporter, 0.5% hP” value in assay [1] was determined as 3.8 nM; in assay [2], 11.7 nM. The “EC50, CreLuc reporter, 100% hP” value in assay [1] stood at 16.8 nM; in assay [2], 135 nM; in assay [3], 12.7 nM.

B5: Compound 88 (peptide)
peptide: YXEGTFTSDYSIXLEKQAQXAFIRHLINKXTRQRY
modifications: Aib at 2, 13, 20, 30; Lys29 epsilon-amino: C18DA-gGlu-gGlu-gGlu-gGlu-gGlu-gGlu-eLys; C-terminal amide
Turning to B5, the results for the “EC50, CreLuc reporter, 0.5% hP” value in assay [1] and in assay [3] were 0.2 nM and 0.1 nM, respectively. In addition, the “EC50, CreLuc reporter, 100% hP” value in assay [1] is 1.8 nM; in assay [2], 30.9 nM; in assay [3] it was 1.7 nM.

B6: Compound 91 (peptide)
peptide: YXEGTFTSDYSIXLEKQRQXAFVRHLINKXTRQRY
modifications: Aib at 2, 13, 20, 30; Lys29 epsilon-amino: C18DA-gGlu-gGlu-gGlu-gGlu-gGlu-gGlu-eLys; C-terminal amide
Regarding B6, the “EC50, CreLuc reporter, 100% hP” value in assay [1] is 13.7 nM; in assay [2] it was 45.2 nM; in assay [3], 14.4 nM. Besides, the “EC50, CreLuc reporter, 0.5% hP” value in assay [2] was found to be 9.7 nM; in assay [3], 0.8 nM.

B7: Compound 96 (peptide)
peptide: YXEGTFTSDYSIXLEKQAQXAFVRHLINKXTRQXY
modifications: Aib at 2, 13, 20, 30; dOR at 34; Lys29 epsilon-amino: C18DA-gGlu-gGlu-gGlu-gGlu-gGlu; C-terminal amide
B7: the “EC50, CreLuc reporter, 0.5% hP” value in assay [1] was 0.9 nM; in assay [2] it was 23 nM; in assay [3], 0.3 nM. Besides, the entries for the “EC50, CreLuc reporter, 100% hP” value in assay [1], in assay [2] and in assay [3] were 1.7 nM, 125 nM and 1.7 nM, respectively.

B8: Compound 112 (peptide)
peptide: YXEGTFTSDYSEXLEKQAQXAFVRHLINKXTRQRY
modifications: Aib at 2, 13, 20, 30; Lys29 epsilon-amino: C18DA-gGlu-gGlu-gGlu-gGlu-gGlu-gGlu-eLys; C-terminal amide
Regarding B8, the “EC50, CreLuc reporter, 100% hP” value in assay [1] was determined as 31.6 nM; in assay [2], 27.9 nM; in assay [3], 10.3 nM. Moreover, the “EC50, CreLuc reporter, 0.5% hP” value in assay [3] was determined as 0.5 nM.

B9: Compound 119 (peptide)
peptide: YXEGTFTSDYSIXLEKQAQXAFVRHLINKXTRQRY
modifications: Aib at 2, 20, 30; aMeL at 13; Lys29 epsilon-amino: C18DA-gGlu-gGlu-gGlu-gGlu-gGlu-gGlu-eLys; C-terminal amide
In the case of B9, in assay [1], the “EC50, CreLuc reporter, 0.5% hP” value was 0.1 nM. The “EC50, CreLuc reporter, 100% hP” value came out at 43.7 nM in assay [2] and 0.8 nM in assay [3].

B10: Compound 166 (peptide)
peptide: Y[Aib]EGTFTSDLSI[Aib]LEKQAQ[Aib]AFVRHLINK([γGlu-γGlu-εLys-γGlu-γGlu-γGlu-γGlu-C20 diacid])[Aib]TRQRY-NH2
In the case of B10, the “EC50, CreLuc reporter, 0.5% hP” value in assay [1] turned out to be 8 nM; in assay [3], 0.6 nM.
